This is an account of results in the supplement of paper PMC7125110.

A word on the kcat: it is the number of substrate molecules converted per active site and unit of time at saturation. The KM is the concentration of substrate that gives half-maximal velocity.

The labels stand for the following.
B1: glmS ribozyme (parent)
chain: AUAAAAGCGCCAGAACUACAGAAAUGUAGUUGACGAGGAGGAGGUUUAUCGAAUUUUCGGCGGAUGCCUCCAAA

± gives the standard error. For some of these results: This sample holds only a part of the variants without activity. Bounds are passed on as bounds.

Holding throughout (details): with glucosamine-6-phosphate
Data set [1] covers variants of B1. Kind of data set: kcat; higher = faster cleavage; RNA array. The procedure, abridged:
(§1)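 Tiles of sequenced MiSeq chips were imaged over ~14 h at 37 °C. On them, barcoded ribozyme variants had been transcribed in situ by E. coli RNA polymerase and were tracked via a hybridised Cy3 probe while glucosamine-6-phosphate (40 μM to 10 mM) in HEPES/KCl/Mg(OAc)2 buffer flowed in. Per-tile medians, normalised to baseline and to non-cleaving reference variants, were fit to one- or two-exponential decays for kobs, and weighted Michaelis–Menten fits gave kcat and KM.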

The variants in data set [2] derive from B1. Kind of data set: KM; higher = weaker cofactor use; RNA array. The gist of the method: as §1
The variants in data set [3] derive from B1. Kind of data set: self-cleavage kobs at 160 uM GlcN6P; higher = faster cleavage; RNA array. The procedure, abridged: as §1
Variants of B1 are the subject of data set [4]. Description: self-cleavage kobs at 640 uM GlcN6P; higher = faster cleavage; RNA array. The procedure, abridged:
as §1

Data set [5] covers variants of B1. Description: self-cleavage kobs at 2500 uM GlcN6P; higher = faster cleavage; RNA array. The gist of the method:
as §1

The variants in data set [6] derive from B1. Kind of data set: self-cleavage kobs at 10000 uM GlcN6P; higher = faster cleavage; RNA array. The procedure, abridged:
as §1

In data set [7] the parent is B1. Kind of data set: self-cleavage kobs at 40 uM GlcN6P; higher = faster cleavage; RNA array. The gist of the method:
as §1

As for A12G A64G, in the data set with glucosamine-6-phosphate [1], the kcat was 0.000701 ± 0.00021 s⁻¹. Further, the KM in the data set with glucosamine-6-phosphate [2] was 2560 ± 1100 µM. Also, in the data set with glucosamine-6-phosphate [3], the “self-cleavage kobs at 160 uM GlcN6P” value amounted to 6.59e-05 ± 1.7e-05 s⁻¹. Further, in the data set with glucosamine-6-phosphate [4], the “self-cleavage kobs at 640 uM GlcN6P” value was found to be 0.000128 ± 1.7e-05 s⁻¹. Further, in the data set with glucosamine-6-phosphate [5], the “self-cleavage kobs at 2500 uM GlcN6P” value was determined as 0.000367 ± 5.3e-05 s⁻¹. For the same variant, in the data set with glucosamine-6-phosphate [6], the “self-cleavage kobs at 10000 uM GlcN6P” value is 0.000537 ± 0.00017 s⁻¹.

As to U47G G66A C70U, the “self-cleavage kobs at 40 uM GlcN6P” value with glucosamine-6-phosphate [7] came out at 0.000121 ± 3e-05 s⁻¹. The “self-cleavage kobs at 10000 uM GlcN6P” value with glucosamine-6-phosphate [6] stood at 0.00591 ± 0.0017 s⁻¹.

In the case of G37A A42U, the kcat with glucosamine-6-phosphate [1] worked out at 0.000872 ± 0.00012 s⁻¹. Also, the KM in the data set with glucosamine-6-phosphate [2] came to 2220 ± 480 µM. Moreover, the “self-cleavage kobs at 40 uM GlcN6P” value with glucosamine-6-phosphate [7] stood at 2.47e-05 ± 1.1e-05 s⁻¹. Further, the “self-cleavage kobs at 160 uM GlcN6P” value in the data set with glucosamine-6-phosphate [3] came out at 5.06e-05 ± 1.2e-05 s⁻¹. In the data set with glucosamine-6-phosphate [4], the “self-cleavage kobs at 640 uM GlcN6P” value worked out at 0.000193 ± 2.3e-05 s⁻¹. Moreover, the “self-cleavage kobs at 2500 uM GlcN6P” value with glucosamine-6-phosphate [5] worked out at 0.00052 ± 6.6e-05 s⁻¹. Further, the “self-cleavage kobs at 10000 uM GlcN6P” value with glucosamine-6-phosphate [6] was 0.000669 ± 9.4e-05 s⁻¹.

On to G44U U45G, for which the kcat with glucosamine-6-phosphate [1] was found to be 0.0224 ± 0.0018 s⁻¹. Moreover, the KM with glucosamine-6-phosphate [2] worked out at 3420 ± 360 µM. In addition, the “self-cleavage kobs at 40 uM GlcN6P” value with glucosamine-6-phosphate [7] stood at 0.000269 ± 4.1e-05 s⁻¹. In addition, the “self-cleavage kobs at 160 uM GlcN6P” value with glucosamine-6-phosphate [3] is 0.00106 ± 0.00018 s⁻¹. Moreover, the “self-cleavage kobs at 640 uM GlcN6P” value with glucosamine-6-phosphate [4] was found to be 0.0033 ± 0.00046 s⁻¹. Also, in the data set with glucosamine-6-phosphate [5], the “self-cleavage kobs at 2500 uM GlcN6P” value was 0.00801 ± 0.0035 s⁻¹. Further, the “self-cleavage kobs at 10000 uM GlcN6P” value with glucosamine-6-phosphate [6] was determined as 0.017 ± 0.0022 s⁻¹.

U55A C58A: the kcat with glucosamine-6-phosphate [1] was found to be 0.000722 ± 7.6e-05 s⁻¹. Besides, the KM in the data set with glucosamine-6-phosphate [2] worked out at 4620 ± 800 µM. In addition, in the data set with glucosamine-6-phosphate [4], the “self-cleavage kobs at 640 uM GlcN6P” value came to 9.44e-05 ± 2e-05 s⁻¹. In addition, the “self-cleavage kobs at 2500 uM GlcN6P” value with glucosamine-6-phosphate [5] is 0.000254 ± 4.5e-05 s⁻¹. For the same variant, the “self-cleavage kobs at 10000 uM GlcN6P” value with glucosamine-6-phosphate [6] is 0.000491 ± 7.2e-05 s⁻¹.

Turning to A53G U57G, the kcat with glucosamine-6-phosphate [1] came out at 5.45e-05 ± 1.2e-06 s⁻¹. In addition, the KM with glucosamine-6-phosphate [2] came to 1880 ± 180 µM. Also, the “self-cleavage kobs at 2500 uM GlcN6P” value with glucosamine-6-phosphate [5] came out at 3.07e-05 ± 1.4e-05 s⁻¹. Also, the “self-cleavage kobs at 10000 uM GlcN6P” value with glucosamine-6-phosphate [6] worked out at 4.6e-05 ± 8.2e-06 s⁻¹.

Regarding A48C U54A, the kcat in the data set with glucosamine-6-phosphate [1] was 0.000452 ± 4.8e-05 s⁻¹. In addition, in the data set with glucosamine-6-phosphate [2], the KM turned out to be 1720 ± 350 µM. For the same variant, the “self-cleavage kobs at 160 uM GlcN6P” value with glucosamine-6-phosphate [3] is 3.98e-05 ± 2e-05 s⁻¹. Moreover, the “self-cleavage kobs at 640 uM GlcN6P” value in the data set with glucosamine-6-phosphate [4] was 0.000118 ± 2.2e-05 s⁻¹. Also, the “self-cleavage kobs at 2500 uM GlcN6P” value in the data set with glucosamine-6-phosphate [5] was determined as 0.000342 ± 8.9e-05 s⁻¹. Besides, in the data set with glucosamine-6-phosphate [6], the “self-cleavage kobs at 10000 uM GlcN6P” value came to 0.000371 ± 6.6e-05 s⁻¹.

As to A12U U47A, the kcat in the data set with glucosamine-6-phosphate [1] is 0.063 ± 0.02 s⁻¹. In addition, the KM in the data set with glucosamine-6-phosphate [2] came to 1490 ± 570 µM. In addition, the “self-cleavage kobs at 40 uM GlcN6P” value with glucosamine-6-phosphate [7] was determined as 0.00189 ± 0.00018 s⁻¹. Moreover, in the data set with glucosamine-6-phosphate [3], the “self-cleavage kobs at 160 uM GlcN6P” value was determined as 0.0041 ± 0.00089 s⁻¹. In addition, the “self-cleavage kobs at 640 uM GlcN6P” value in the data set with glucosamine-6-phosphate [4] turned out to be 0.0249 ± 0.0068 s⁻¹. Besides, the “self-cleavage kobs at 2500 uM GlcN6P” value with glucosamine-6-phosphate [5] is 0.0403 ± 0.011 s⁻¹. Further, in the data set with glucosamine-6-phosphate [6], the “self-cleavage kobs at 10000 uM GlcN6P” value was 0.0554 ± 0.01 s⁻¹.

For the variant A15U U46A, the kcat in the data set with glucosamine-6-phosphate [1] was determined as 0.000378 ± 2.9e-05 s⁻¹. Also, the KM with glucosamine-6-phosphate [2] was found to be 2050 ± 300 µM. The “self-cleavage kobs at 160 uM GlcN6P” value with glucosamine-6-phosphate [3] stood at 3.16e-05 ± 1.1e-05 s⁻¹. The “self-cleavage kobs at 640 uM GlcN6P” value with glucosamine-6-phosphate [4] was determined as 8.53e-05 ± 9.5e-06 s⁻¹. Moreover, in the data set with glucosamine-6-phosphate [5], the “self-cleavage kobs at 2500 uM GlcN6P” value is 0.000225 ± 2.3e-05 s⁻¹. Further, the “self-cleavage kobs at 10000 uM GlcN6P” value in the data set with glucosamine-6-phosphate [6] was 0.000303 ± 3.2e-05 s⁻¹.

Consider G43U U46A U47G C70G, for which the “self-cleavage kobs at 40 uM GlcN6P” value with glucosamine-6-phosphate [7] is under 1e-05 s⁻¹. Further, the “self-cleavage kobs at 640 uM GlcN6P” value with glucosamine-6-phosphate [4] was under 1e-05 s⁻¹. In addition, the “self-cleavage kobs at 2500 uM GlcN6P” value with glucosamine-6-phosphate [5] is under 1e-05 s⁻¹. In addition, the “self-cleavage kobs at 10000 uM GlcN6P” value with glucosamine-6-phosphate [6] was under 1e-05 s⁻¹.

With U57A G66U, the kcat with glucosamine-6-phosphate [1] was found to be 2.06e-05 ± 1.5e-06 s⁻¹. The “self-cleavage kobs at 40 uM GlcN6P” value with glucosamine-6-phosphate [7] was under 1e-05 s⁻¹.

As for A6G C50U C58U U65G, the “self-cleavage kobs at 40 uM GlcN6P” value in the data set with glucosamine-6-phosphate [7] is under 1e-05 s⁻¹. Besides, in the data set with glucosamine-6-phosphate [4], the “self-cleavage kobs at 640 uM GlcN6P” value is under 1e-05 s⁻¹. The “self-cleavage kobs at 10000 uM GlcN6P” value with glucosamine-6-phosphate [6] was under 1e-05 s⁻¹.

Turning to U54C C70G, in the data set with glucosamine-6-phosphate [1], the kcat stood at 0.000186 ± 3.5e-05 s⁻¹. Besides, in the data set with glucosamine-6-phosphate [7], the “self-cleavage kobs at 40 uM GlcN6P” value was determined as 5.08e-05 ± 1.5e-05 s⁻¹. Moreover, the “self-cleavage kobs at 160 uM GlcN6P” value with glucosamine-6-phosphate [3] was determined as 0.000109 ± 3.8e-05 s⁻¹. Moreover, in the data set with glucosamine-6-phosphate [4], the “self-cleavage kobs at 640 uM GlcN6P” value worked out at 0.000175 ± 2.3e-05 s⁻¹. Also, in the data set with glucosamine-6-phosphate [5], the “self-cleavage kobs at 2500 uM GlcN6P” value stood at 0.000139 ± 2.6e-05 s⁻¹. Further, the “self-cleavage kobs at 10000 uM GlcN6P” value with glucosamine-6-phosphate [6] is 0.000325 ± 6.2e-05 s⁻¹.

With G13U A36C, in the data set with glucosamine-6-phosphate [1], the kcat was under 1e-05 s⁻¹. For the same variant, the “self-cleavage kobs at 10000 uM GlcN6P” value in the data set with glucosamine-6-phosphate [6] was under 1e-05 s⁻¹.

In the case of C34G G63U C68G, the kcat in the data set with glucosamine-6-phosphate [1] came to 2.21e-05 ± 7.4e-06 s⁻¹.

Consider G32C A48U, for which the kcat in the data set with glucosamine-6-phosphate [1] is under 1e-05 s⁻¹. In addition, the “self-cleavage kobs at 40 uM GlcN6P” value in the data set with glucosamine-6-phosphate [7] is under 1e-05 s⁻¹.
